# ± gives the uncertainty stated by the source.
# Test: amyloid nucleation score (Sup35N fusion, yeast selection) (log enrichment); library NNK1; higher = more nucleation; inactive = no reads after selection
# In short: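 Psi-negative yeast expressed Sup35N fused to peptides of 20 random codons. They were induced 24 hours with 100 μM copper sulfate, grown 7 days at 30°C without adenine and uracil, and their plasmid inserts from input and output were Illumina-sequenced. The nucleation score is the DiMSum log enrichment of output over input reads, centred on the mode score of non-aggregating sequences. Sequences with under 100 input reads were excluded.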
row,Substance,amyloid nucleation score
1,KLVTAPISKSLF,0.55 ± 0.92
2,TRPLPWTQP,0.242 ± 0.47
3,RMMFCVVAESGFQVWEVRSG,-0.502 ± 0.42
4,LSFWLCSWSMWCKSQLGNDR,2.13 ± 0.13
5,WKLPWALSRPVKYRYHEVGR,0.225 ± 0.43
6,RSVCYIKNPVVAREFLVLSA,inactive
7,SMYVYDRGTGILLSCGVYFF,1.82 ± 0.11
8,KGYLLRWLGEVYFVNYGSNS,-0.585 ± 0.84
9,FVLRTFQVDNSRQDTTNVST,0.309 ± 0.48
10,LLHGGY,-1.86 ± 2.4
11,SVPAHFNRYMCNRGYCRFRR,inactive
12,FRKCVGAQGGSGSWNGCPSE,1.99 ± 0.23
13,TSSFFTDIDFNG,-0.363 ± 0.7
14,SSIALYFGWLGSIR,0.294 ± 0.85
15,LELSKTISMPVSMNRFWVIR,-1.39 ± 1.2
16,LPLICRSSGLLV,-0.405 ± 1.6
17,FFGFMILNYKFSK,inactive
18,YLCRRT,0.675 ± 0.63
19,VIKFWSQ,0.536 ± 0.77
20,KLQLVSLWQ,2.77 ± 0.11
21,MQNMNEVSIINVAERVVNGG,inactive
22,QRSLMDAPMGKPRESNLLLV,1.1 ± 0.57

row,Substance,amyloid nucleation score
1,HRSRLFAISERFEDIFYI,0.611 ± 0.78
2,RFLGIRTATMDMGSKERMWV,0.601 ± 0.44
3,SNSFALALLPGGT,0.275 ± 0.75
4,TCHLLPSICKSLWNHDNHGL,inactive
5,LVVLLIRTNCVKRKEFGERA,-2.04 ± 2.4
6,INRTTRNLLSRCRWYNCYKR,0.155 ± 1
7,HILTMDLLPTPLSRQLRNMN,-0.763 ± 0.97
8,LFVTCPHLSTQ,1.26 ± 0.69
9,LDVTSDFCTMI,0.5 ± 0.38
10,GPSLGVIFKEIWFYYG,0.541 ± 0.3
11,QWRSFYTAWVAYRDECPGGF,2.44 ± 0.15
12,LFVNFGTLS,0.391 ± 0.41
13,HQVIQGVSYSTCG,0.107 ± 0.38
14,RLYKN,0.161 ± 0.9
15,CDQASL,inactive
16,LTLICSSGEC,2.14 ± 0.17
17,FMVACWHSKWAYDNCYYNSS,inactive
18,KSCTCRNSSYRYVHINLARY,-0.253 ± 0.6
19,NFVFGHNGGACSYVGLLM,1 ± 0.7
20,FTFKWMGSPWLWR,0.485 ± 1.2
21,WIVHCVEFALYGLGF,1.33 ± 0.79
22,IERKLCKIGVMK,0.597 ± 0.65

row,Substance,amyloid nucleation score
1,NLSTCDE,1.03 ± 0.58
2,SSNYADNEGSAHQFGNRRES,-0.108 ± 0.43
3,KCTVDQTSNIAACTSVGLCI,5.36 ± 0.093
4,LCMNCVIQSDKRSSLLCYER,-0.636 ± 1.2
5,YPCHSREMHYCREWVRDLST,-0.396 ± 0.62
6,LREGTFRLRQVTTFRGYRPW,0.101 ± 0.37
7,YPYTSLRQGRDTRNREGLQC,0.301 ± 0.61
8,SSDSLYTYDMDWAWAGTP,0.281 ± 0.38
9,VVRPAPRDKPTGPSLCLWGN,0.086 ± 0.42
10,ICTVSLLYFVYDKYCHNATL,-0.444 ± 0.56
11,MYCWY,inactive
12,VLDVVVCSSWGDLKRNLRPC,3.29 ± 0.11
13,YNSRRCNIHFNFIGKC,6.783 ± 0.054
14,LVIHCDQTHIKVQRDVPRRW,2.98 ± 0.15
15,MRTRWSIIMDVRYDNSV,1.55 ± 0.21
16,HEVWH,-0.379 ± 0.55
17,NCAFVAS,-0.019 ± 0.34
18,MLLIVPLFDSEVVWPGVVWT,-0.235 ± 0.66
19,GSRYHEECRWTCREAPTDAR,-1.07 ± 1.6
20,CALLRCMLGSYSQYVARVGE,0.504 ± 0.39
21,KRTHSTLHK,0.36 ± 0.38
22,VMHLWLVYCHTTVS,0.755 ± 0.73

row,Substance,amyloid nucleation score
1,RARQNAFREW,-0.301 ± 0.35
2,LLYFRVRSMFKGLRNETYMA,0.411 ± 0.27
3,TRGTPFEYLATGG,0.607 ± 0.71
4,TSSWDSPCYQEAVFIGGYYI,0.619 ± 0.47
5,TVSKLSCYNVVDPTIWNLSD,0.236 ± 0.69
6,NNRKYLGRNMAANWGAWFKR,-0.395 ± 0.36
7,WCVWFVQISCMVRVGAKLNS,0.184 ± 0.38
8,QISRCILNNPRPCLSF,1.01 ± 0.9
9,SICSFLFR,3.69 ± 0.093
10,WLSGYKSQMVK,-0.291 ± 0.78
11,LVSQVFNVQRYGGRTVPQSF,0.364 ± 1.2
12,LWKGATRCHKVLRMLENDND,-0.606 ± 0.9
13,KFLRGYSCNVRSRPTRDRSV,inactive
14,LCDLWQHFSSSNVTGGLRRN,0.966 ± 0.54
15,ALLPKFCDIKFVVEKNGENR,0.181 ± 1.4
16,TFHNSYLYGTRNVWMLYSVR,3.47 ± 0.091
17,DYCRLMAWLSL,0.315 ± 0.51
18,IFCGRIKQCSLASHCKLEWG,0.69 ± 0.41
19,WTQAPDSAVGDGWGSNGSEA,0.013 ± 0.47
20,TSGFKLGRSGGYVCRS,1.41 ± 0.78
21,GQSYRRNIMCTSFLWLGNRN,1.05 ± 0.53
22,CDRVGSKEQSFDKWPLWFAP,-1.18 ± 1.9
